{"source": "paper PMC11832932", "target": "HSC70 (UniProt P11142)", "test": "Flag IP, blot for HA-HSC70", "details": "reference: wild type, H2O2-treated cells; sites S371", "data": [{"substance": "PHGDH (from UniProt O43175) S371A, H2O2-treated cells", "values": [{"measurement": "binding against the reference", "value": "weaker"}]}]}
